Reference: PMC11357992, “Non-invasive mapping of systemic neutrophil dynamics upon cardiovascular injury” (Nature Cardiovascular Research, 2023)
Several values for one entry are separate records, joined by “and”; a condition that tells them apart may be missing. Equal values may be shown once. Where no end group is shown, it is not given here. Side-chain parts run from the residue outwards. rhodamine‑labelled PEGylated perfluoro‑15‑crown‑5 ether nanoemulsion = not defined here; carboxyfluorescein = N-terminal fluorescence label (CF)

Columns and labels:
murine neutrophils = test: Phagocytosis of FITC-labeled E. coli particles by murine neutrophils after mNPPFC injection; type: in vivo, mouse; conditions: in the presence of the targeting PFCs
Method: […] per kg BW ^mNPPFCs or saline were injected i.v., followed by 100 µl FITC-labeled Escherichia coli particles (Thermo Fisher) 2 h later. […] Thereafter, FITC labeling was determined by flow cytometry.
Extended Data Fig. 9 Impact of ^mNPPFCs on murine neutrophils. a, Differentially expressed genes (DEGs) identified by bulk RNA sequencing of murine blood neutrophils after intravenous injection of ^mNPPFCs, ^ConPFCs or NaCl (Ctrl) as control. Volcano plots of DEGs for murine neutrophils of animals treated with saline compared to ^mNPPFCs (left), or ^ConPFCs compared to ^mNPPFC (right). […] BF = Bonferroni corrected p-values of the false discovery rate. In total 25655 RNA transcripts were analyzed. b, Cell surface expression of CD11b, CD62L, CD63 on blood derived murine neutrophils after intravenous application of NaCl (Ctrl) or ^mNPPFCs. As a positive control, matrigel doped with 50 µg LPS was subcutaneously implanted into the neck of mice and after 24 h, neutrophils were isolated from the blood and analyzed by flow cytometry. c, Impact of ^mNPPFC incubation on neutrophil migration, phagocytosis and release of reactive oxygen species (ROS). […]

bone marrow neutrophils = test: In situ labeling of bone marrow neutrophils and tracking after MI, 1H/19F MRI of bone marrow; type: in vivo, mouse; conditions: Depletion of neutrophils by Ly6G Ab injection 48 and 24 h prior to mNPPFC injection; 24 h after injection; individual experiments
[1] = tested on: CD177+ and CD177- neutrophils; test: hNPPFC uptake by CD177+ and CD177- neutrophil subpopulations, flow cytometry; type: cell-based, human; conditions: latter = CD177+
Method: Fig. 5 Specific targeting of human neutrophils by ^hNPPFCs. a, Uptake of ^hNPPFCs (red) or ^ConPFCs (gray) by human lymphocytes, monocytes or neutrophils over time as determined by flow cytometry. **P < 0.01. b, For MRI analysis, human immune cells were incubated with ^hNPPFCs (top row) or ^ConPFCs (bottom row). After several washing steps, cells were purified by density gradient centrifugation and analyzed by MRI. First column, ^1H MR image of the centrifugation tube with the cell layer (arrow) on top of the dark Percoll layer; second column, ^19F MR image of the same area; third column, merge of both datasets. Quantification of the ^19F data is shown on the right. c, hNP was conjugated to the pH-sensitive dye pHrodo, incubated with neutrophils at 4 °C (blue) and 37 °C (red) and analyzed by flow cytometry. d, Confocal microscopy of neutrophils incubated with ^hNPPFCs (top) or ^ConPFCs (bottom). Fluorescence signals of PFCs (rhodamine; Rho) as well as ligands (carboxyfluorescein; CF) were recorded, and nuclei were counterstained with 4′,6-diamidino-2-phenylindole (DAPI) (blue). […] At distinct time points, uptake of ^hNPPFCs was determined by flow cytometry. f, Human blood immune cells were incubated with ^hNPPFCs followed by staining for CD177 and flow cytometry. […]

[2] = Cryo-transmission electron microscopy of PFCs (diameter, liposomes); type: physicochemical; parameters: key: % of PFCs per 25 nm diameter class in cryo-TEM images; conditions: cryo-TEM size distribution; panel C raw data, single replicates #1-#3
Method: PFCs were diluted with sample buffer to minimize particle aggregation and therefore enable proper size measurements, which were carried out as previously described.
Extended Data Fig. 8 Physicochemical properties and cellular uptake of ^hNPPFCs. a, Cellular uptake of ^hNPPFCs by human monocyte subsets and neutrophils: Human immune cells isolated from the blood of healthy volunteers were incubated with ^hNPPFCs. Subsequently, cells were stained with CD11b, CD14 and CD16 to differentiate between neutrophils (red), classical monocytes (gray) and non-classical monocytes (blue) and the cells were analyzed by flow cytometry. The cellular uptake of ^hNPPFCs was determined under unstimulated conditions (top) and after treatment with 1 µg/ml LPS (bottom). b, Physicochemical properties of the generated nanotracers: Characterization of size, size distribution and ζ potential of ^MalPFCs and targeting PFCs (^hNPPFCs, ^ConPFCs) by dynamic light scattering (DLS). The rhodamine fluorescence signal of the PCS was determined by IVIS imaging and the ^19F content by ^19F MRI. c-e, Cryo transmission electron microscopy of the generated nanotracers: c, Cryo transmission electron microscopy (cryo-TEM) of ^hNPPFCs and ^ConPFCs. Graphs: The diameter of the PFCs was determined manually from three images categorized into 25 nm groups. […] Data are derived from three images for ^hNPPFCs and ^ConPFCs each. d, Box plot (box and whiskers; min to max) of the diameter of ^ConPFCs/^hNPPFCs calculated from cryo-TEM images. e, Relative amount of liposomes (%) in individual cryo-TEM images. The number of PFCs and liposomes was manually determined (n = 4/5 images). Red arrows in the cryo-TEM images indicate liposomes. Data are mean values ± SD of n = 5-6 (a), n = 3-6 (b), n = 3 (c), n = 3 (d) and n = 6 (e) independent experiments; *** = p < 0.001, verified by one-way ANOVA (a). Source data

In the case of “mNPPFCs: PEGylated rhodamine-labeled perfluoro-15-crown-5 ether nanoemulsion (maleimide PFCs) coupled with murine neutrophil-specific peptide mNP (carboxyfluorescein-DFYKPMPNLRITGGGC([maleimide‑PEG2000‑DSPE-rhodamine‑labelled PEGylated perfluoro‑15‑crown‑5 ether nanoemulsion]); reading uncertain; also: printed as DFYKPMPNLRIT-GGG-C)”, the “phagocytosis by murine neutrophils” value (murine neutrophils) is reported as “unaltered” and the “19F signal within the femur and tibia (bone marrow)” value (bone marrow neutrophils) is reported as 519273 and 821555 and 523902 and 983614 and 347032.

With “hNPPFCs: PEGylated rhodamine-labeled perfluorocarbon nanoemulsion coupled with human neutrophil-specific peptide hNP (carboxyfluorescein-DLVTSKLQVGGGC; also: C-terminal Cys coupled via maleimide-PEG2000-DSPE to rhodamine-labelled perfluorocarbon nanoemulsion)” the “labeling of CD177− versus CD177+ neutrophils” value [1] was “only the latter population could be labeled”, the “share of particles in size class 0-25” value [2] was 0 and the “share of particles in size class 25-50” value [2] was 26.2295 and 23.5714 and 28.5714. For the same substance, the “share of particles in size class 50-75” value [2] was 45.9016 and 51.4286 and 42.0635, the “share of particles in size class 75-100” value [2] was 21.3115 and 20 and 23.8095 and the “share of particles in size class 100-125” value [2] was 6.557 and 5 and 5.556. For the same substance, the “share of particles in size class 125-150” value [2] was 0, the “share of particles in size class 150-175” value [2] was 0 and the “share of particles in size class 175-200” value [2] was 0.
